Results: patent US20260184814A1, “BROADLY NE[…] INFLUENZA NEURAMINIDASE” (priority 2022, published 2026)
Read-outs that look alike come from different tables or passages of the source.

What was measured:
human FcγRIIb (human) [1] = molecular target: human FcγRIIb (human) (UniProt P31994)
[2] = molecular target: human FcγRIIIa (V158 allele) (human) (UniProt P08637)
[3] = molecular target: human FcγRIIa (H131 allele) (human) (UniProt P12318)
[4] = molecular target: human FcγRIIIa (F158 allele) (human) (UniProt P08637)
human FcγRIIIa (F158 allele) (human), sequence (P08637 17-208 limits assumed): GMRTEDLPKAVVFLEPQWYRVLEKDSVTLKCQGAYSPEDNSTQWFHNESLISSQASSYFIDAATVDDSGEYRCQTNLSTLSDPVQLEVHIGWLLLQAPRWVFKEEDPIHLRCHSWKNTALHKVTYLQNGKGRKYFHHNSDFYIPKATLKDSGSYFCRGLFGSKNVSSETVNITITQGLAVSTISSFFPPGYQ

human FcγRIIb (human) [5] = molecular target: human FcγRIIb (human) (UniProt P31994); assay: MSD [cont'd]
[6] = molecular target: human FcγRIIIa (V158 allele) (human) (UniProt P08637); assay: MSD [cont'd]
[7] = molecular target: human FcγRIIa (H131 allele) (human) (UniProt P12318); assay: MSD [cont'd]
human FcRn (human) [8] = molecular target: human FcRn (human) (UniProt P55899); assay: MSD [cont'd]
human FcRn (human), sequence (P55899 24-297 limits assumed, chain 1 of 2): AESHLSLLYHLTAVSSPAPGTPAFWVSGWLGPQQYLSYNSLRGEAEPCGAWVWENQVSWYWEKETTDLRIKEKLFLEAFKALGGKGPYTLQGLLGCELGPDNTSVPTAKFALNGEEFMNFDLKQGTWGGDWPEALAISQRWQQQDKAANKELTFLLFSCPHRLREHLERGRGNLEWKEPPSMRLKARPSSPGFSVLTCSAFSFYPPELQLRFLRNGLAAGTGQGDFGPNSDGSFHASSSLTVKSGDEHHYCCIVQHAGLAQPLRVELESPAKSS
human FcRn (human), sequence (chain, as listed by the source limits assumed, chain 2 of 2): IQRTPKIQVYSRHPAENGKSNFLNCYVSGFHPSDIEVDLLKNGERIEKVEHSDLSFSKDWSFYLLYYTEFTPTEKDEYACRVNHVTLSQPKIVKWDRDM

[9] = molecular target: human FcγRIIa (R131 allele) (human) (UniProt P12318); assay: MSD [cont'd]
human FcγRIIa (R131 allele) (human), sequence (P12318 34-218 H167R limits assumed): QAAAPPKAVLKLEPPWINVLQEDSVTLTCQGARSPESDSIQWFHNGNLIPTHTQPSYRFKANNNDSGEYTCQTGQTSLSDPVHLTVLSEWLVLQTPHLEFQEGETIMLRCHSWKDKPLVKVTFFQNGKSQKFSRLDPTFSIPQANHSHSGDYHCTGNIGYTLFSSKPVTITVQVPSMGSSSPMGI

human C1q (human) [10] = molecular target: human C1q (human) (UniProt P02745); assay: MSD [cont'd]
human C1q (human), sequence (P02745 23-245 limits assumed, chain 1 of 3): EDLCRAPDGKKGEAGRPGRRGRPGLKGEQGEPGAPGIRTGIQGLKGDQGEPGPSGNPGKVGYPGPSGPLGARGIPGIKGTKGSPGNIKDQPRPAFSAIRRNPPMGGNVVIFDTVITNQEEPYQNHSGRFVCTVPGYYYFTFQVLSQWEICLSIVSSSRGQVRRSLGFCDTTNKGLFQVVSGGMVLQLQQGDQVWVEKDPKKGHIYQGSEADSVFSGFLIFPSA
human C1q (human), sequence (P02746 28-253 limits assumed, chain 2 of 3, further chain): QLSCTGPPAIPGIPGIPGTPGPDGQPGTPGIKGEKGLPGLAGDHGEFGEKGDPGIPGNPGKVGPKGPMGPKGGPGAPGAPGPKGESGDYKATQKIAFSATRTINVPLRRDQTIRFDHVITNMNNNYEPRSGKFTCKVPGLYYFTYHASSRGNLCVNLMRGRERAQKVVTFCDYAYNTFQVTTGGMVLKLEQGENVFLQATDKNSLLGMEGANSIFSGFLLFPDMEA
human C1q (human), sequence (P02747 29-245 limits assumed, chain 3 of 3, further chain): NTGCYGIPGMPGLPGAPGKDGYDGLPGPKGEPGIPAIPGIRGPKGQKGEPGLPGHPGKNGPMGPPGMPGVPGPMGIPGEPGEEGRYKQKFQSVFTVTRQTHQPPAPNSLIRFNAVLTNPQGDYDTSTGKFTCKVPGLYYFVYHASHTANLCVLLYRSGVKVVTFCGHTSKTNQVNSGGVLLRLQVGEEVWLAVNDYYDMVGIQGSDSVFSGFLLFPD

[11] = molecular target: human FcγRIIIa (F158 allele) (human) (UniProt P08637); assay: MSD [cont'd]
human FcγRIIIb (human) [12] = molecular target: human FcγRIIIb (human) (UniProt O75015); assay: MSD [cont'd]
human FcγRIIIb (human), sequence (O75015 17-200 limits assumed): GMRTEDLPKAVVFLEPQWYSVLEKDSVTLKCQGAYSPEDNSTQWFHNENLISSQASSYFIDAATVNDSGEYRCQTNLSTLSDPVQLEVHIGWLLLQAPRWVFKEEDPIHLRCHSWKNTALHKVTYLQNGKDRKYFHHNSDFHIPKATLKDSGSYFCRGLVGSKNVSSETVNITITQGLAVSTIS

[13] = molecular target: human FcγRIIIa (V158 allele) (human) (UniProt P08637); remark: listed apart in the source
[14] = molecular target: human FcγRIIIa (F158 allele) (human) (UniProt P08637); remark: listed apart in the source
human FcγRIIb (human) [15] = molecular target: human FcγRIIb (human) (UniProt P31994); assay: MSD [cont'd]; remark: listed apart in the source
[16] = molecular target: human FcγRIIa (H131 allele) (human) (UniProt P12318); assay: MSD [cont'd]; remark: listed apart in the source
human FcRn (human) [17] = molecular target: human FcRn (human) (UniProt P55899); assay: MSD [cont'd]; remark: listed apart in the source
[18] = molecular target: human FcγRIIa (R131 allele) (human) (UniProt P12318); assay: MSD [cont'd]; remark: listed apart in the source
human C1q (human) [19] = molecular target: human C1q (human) (UniProt P02745); assay: MSD [cont'd]; remark: listed apart in the source
[20] = molecular target: human FcγRIIIa (F158 allele) (human) (UniProt P08637); assay: MSD [cont'd]; remark: listed apart in the source
[21] = molecular target: human FcγRIIIa (V158 allele) (human) (UniProt P08637); assay: MSD [cont'd]; remark: listed apart in the source
[22] = molecular target: human FcγRIIIa (V158 allele) (human) (UniProt P08637); assay: MSD electrochemiluminescence binding assay; column IIIA_V
[23] = molecular target: human FcγRIIIa (F158 allele) (human) (UniProt P08637); assay: MSD electrochemiluminescence binding assay; column IIIA_F
human FcγRIIb (human) [24] = molecular target: human FcγRIIb (human) (UniProt P31994); remark: listed apart in the source
[25] = molecular target: human FcγRIIIa (V158 allele) (human) (UniProt P08637); remark: listed apart in the source
[26] = molecular target: human FcγRIIa (H131 allele) (human) (UniProt P12318); remark: listed apart in the source
[27] = molecular target: human FcγRIIIa (F158 allele) (human) (UniProt P08637); remark: listed apart in the source
human FcγRIIb (human) [28] = molecular target: human FcγRIIb (human) (UniProt P31994); assay: MSD electrochemiluminescence binding assay; column IIB
human FcγRIIIb (human) [29] = molecular target: human FcγRIIIb (human) (UniProt O75015); assay: MSD electrochemiluminescence binding assay; column IIIB
[30] = molecular target: human FcγRIIa (R131 allele) (human) (UniProt P12318); assay: MSD electrochemiluminescence binding assay; column IIA_R
human FcγRIIb (human) [31] = molecular target: human FcγRIIb (human) (UniProt P31994); assay: MSD
[32] = molecular target: human FcγRIIIa (V158 allele) (human) (UniProt P08637); assay: MSD
[33] = molecular target: human FcγRIIa (H131 allele) (human) (UniProt P12318); assay: MSD
human FcRn (human) [34] = molecular target: human FcRn (human) (UniProt P55899); assay: MSD
[35] = molecular target: human FcγRIIa (R131 allele) (human) (UniProt P12318); assay: MSD
human C1q (human) [36] = molecular target: human C1q (human) (UniProt P02745); assay: MSD
[37] = molecular target: human FcγRIIIa (F158 allele) (human) (UniProt P08637); assay: MSD
human FcγRIIIb (human) [38] = molecular target: human FcγRIIIb (human) (UniProt O75015); assay: MSD
[39] = molecular target: human FcγRIIa (H131 allele) (human) (UniProt P12318); assay: MSD electrochemiluminescence binding assay; column IIA_H
human FcRn (human) [40] = molecular target: human FcRn (human) (UniProt P55899); assay: MSD electrochemiluminescence binding assay; column FcRn

human FcγRIIa (H131 allele) (human), sequence (P12318 34-218 limits assumed): as the sequence (P12318 34-218 H167R limits assumed) above, with R134H counted along it
human FcγRIIb (human), sequence (P31994 43-217 limits assumed): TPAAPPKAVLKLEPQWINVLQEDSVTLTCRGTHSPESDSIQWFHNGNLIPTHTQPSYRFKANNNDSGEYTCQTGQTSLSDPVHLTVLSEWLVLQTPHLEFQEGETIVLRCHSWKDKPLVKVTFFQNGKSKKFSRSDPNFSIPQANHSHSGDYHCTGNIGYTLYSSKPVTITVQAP
human FcγRIIIa (V158 allele) (human), sequence (P08637 17-208 F176V limits assumed): as the sequence (P08637 17-208 limits assumed) above, with F160V counted along it

Substance: A330L_I332E (antibody)
- FcγR reporter signaling, fold-change vs wt [cont'd] (human FcγRIIb (human) [1]): 0.69 fold
- FcγR reporter signaling, fold-change vs wt [cont'd] [2]: 4.38 fold
- FcγR reporter signaling, fold-change vs wt [cont'd] [3]: 0.71 fold
- FcγR reporter signaling, fold-change vs wt [cont'd] [4]: 11.9 fold
- fold-change vs wt (human FcγRIIb (human) [5]): 0.66 fold
- fold-change vs wt [6]: 3.52 fold
- fold-change vs wt [7]: 0.42 fold
- fold-change vs wt (human FcRn (human) [8]): 1.12 fold
- fold-change vs wt [9]: 0.52 fold
- fold-change vs wt (human C1q (human) [10]): 0.03 fold
- fold-change vs wt [11]: 11.9 fold
- fold-change vs wt (human FcγRIIIb (human) [12]): 5.19 fold

Substance: G236A_S239D_A330L_I332E (antibody)
- FcγR reporter signaling, fold-change vs wt [cont'd] (human FcγRIIb (human) [1]): 1.2 fold
- FcγR reporter signaling, fold-change vs wt [cont'd] [2]: 6.02 fold
- FcγR reporter signaling, fold-change vs wt [cont'd] [3]: 2.47 fold
- FcγR reporter signaling, fold-change vs wt [cont'd] [4]: 19.4 fold
- fold-change vs wt (human FcγRIIb (human) [5]): 1.94 fold
- fold-change vs wt [6]: 8.03 fold
- fold-change vs wt [7]: 5.15 fold
- fold-change vs wt (human FcRn (human) [8]): 1.02 fold
- fold-change vs wt [9]: 9.68 fold
- fold-change vs wt (human C1q (human) [10]): 0 fold
- fold-change vs wt [11]: 55.1 fold
- fold-change vs wt (human FcγRIIIb (human) [12]): 14 fold

Substance: G236A_S239D_A330L_I332E-afuc (antibody)
- FcγR reporter signaling, fold to wt-fucose [cont'd] [13]: 5.16 fold
- FcγR reporter signaling, fold to wt-fucose [cont'd] [14]: 11.5 fold
- fold to wt-fucose (human FcγRIIb (human) [5]): 1.21 fold
- fold to wt-fucose [6]: 75.6 fold
- fold to wt-fucose [7]: 3.58 fold
- fold to wt-fucose (human FcRn (human) [8]): 0.96 fold
- fold to wt-fucose [9]: 7.58 fold
- fold to wt-fucose [11]: 730 fold
- fold to wt-fucose (human FcγRIIIb (human) [12]): 94.3 fold

Substance: IgG1 antibody with Fc variant E272R_L309T_S219Y_S267E
- fold-change vs wt (human FcγRIIb (human) [15]): 4.77 fold
- fold-change vs wt [16]: 0.33 fold
- fold-change vs wt (human FcRn (human) [17]): 0.98 fold
- fold-change vs wt [18]: 10.7 fold
- fold-change vs wt (human C1q (human) [19]): 2.53 fold
- fold-change vs wt [20]: 0.37 fold

Substance: IgG1 antibody with Fc variant E345K_G236S_L235Y_S267E
- fold-change vs wt (human FcγRIIb (human) [15]): 1.71 fold
- fold-change vs wt [21]: 0.05 fold
- fold-change vs wt [16]: 0.53 fold
- fold-change vs wt (human FcRn (human) [17]): 0.9 fold
- fold-change vs wt [18]: 9.22 fold
- fold-change vs wt (human C1q (human) [19]): 2.35 fold
- fold-change vs wt [20]: 0.29 fold

Substance: IgG1 antibody with Fc variant F243L_G446E_P396L_S267E
- fold-change vs wt (human FcγRIIb (human) [15]): 15.7 fold
- fold-change vs wt [21]: 0.24 fold
- fold-change vs wt [16]: 0.77 fold
- fold-change vs wt (human FcRn (human) [17]): 1.05 fold
- fold-change vs wt [18]: 31.1 fold
- fold-change vs wt (human C1q (human) [19]): 4.17 fold
- fold-change vs wt [20]: 0.63 fold

Substance: IgG1 antibody with Fc variant G236A_L328V_Q295E
- fold-change in binding vs wild-type IgG1 [22]: 0.36
- fold-change in binding vs wild-type IgG1 [23]: 0.52
- FcγR reporter signaling, fold-change vs wt [cont'd] (human FcγRIIb (human) [24]): 0.66 fold
- FcγR reporter signaling, fold-change vs wt [cont'd] [25]: 0.03 fold
- FcγR reporter signaling, fold-change vs wt [cont'd] [26]: 2.18 fold
- FcγR reporter signaling, fold-change vs wt [cont'd] [27]: 0.02 fold
- fold-change in binding vs wild-type IgG1 (human FcγRIIb (human) [28]): 0.81
- fold-change in binding vs wild-type IgG1 (human FcγRIIIb (human) [29]): 0.71
- fold-change in binding vs wild-type IgG1 [30]: 10.7
- fold-change vs FY1 rIgG1m3 (human FcγRIIb (human) [31]): 0.9 fold
- fold-change vs wt (human FcγRIIb (human) [31]): 0.86 fold
- fold-change vs FY1 rIgG1m3 [32]: 0.4 fold
- fold-change vs wt [32]: 0.36 fold
- fold-change vs FY1 rIgG1m3 [33]: 7.8 fold
- fold-change vs wt [33]: 7.8 fold
- fold-change vs FY1 rIgG1m3 (human FcRn (human) [34]): 1.1 fold
- fold-change vs FY1 rIgG1m3 [35]: 10.8 fold
- fold-change vs wt [35]: 10.8 fold
- fold-change vs FY1 rIgG1m3 (human C1q (human) [36]): 0.07 fold
- fold-change vs FY1 rIgG1m3 [37]: 0.5 fold
- fold-change vs wt [37]: 0.52 fold
- fold-change vs FY1 rIgG1m3 (human FcγRIIIb (human) [38]): 0.7 fold
- fold-change vs wt (human FcγRIIIb (human) [38]): 0.7 fold
- fold-change in binding vs wild-type IgG1 [39]: 7.76
- fold-change in binding vs wild-type IgG1 (human FcRn (human) [40]): 1.07
- fold-change vs wt (human FcRn (human) [8]): 1.08 fold
- fold-change vs wt (human C1q (human) [10]): 0.07 fold
